{"source": "paper PMC5350145", "about": "“Either fadD1 or fadD2, Which Encode acyl-CoA Synthetase, Is Essential for the Survival of Haemophilus parasuis SC096” (Frontiers in Cellular and Infection Microbiology, 2017)", "molecules": {"B1": {"name": "FadD2 (Glaesserella parasuis SH0165) (protein)", "chain": "MASLDFHFVNRFRLQAKKWLNRTALRFREQAQWQEMSWQTFQQEIDRFSYALIAQHIDIQDKIGIFANNMPRWTIADFGAMQARAVAVPIYATNTAKQVEYIVNDADIKILFVGDQEQLDQVCQIANNCPQLMKIVAMKANMDLRDLPNACYWEDFLDVVPNEAEFEKRLNSKQLSDLFTLIYTSGTTGEPKGVMLDYANLAHQLNAHDLALNVNEDDVSLSFLPLSHIFERAWVAYVFHRGATNCYLEDTNHVRDALTTLKPTVMCAVPRFYEKIYTAVWDKVEKAPAHRRALFNWAIRVGEKHYQTEQPSQWLRLQYALADKLVLTKLRALLGGRIKMMPCGGAKLEASIGSFFHSIGINIKLGYGMTETTATVSCWQDKGFNPNSIGTLMPNAEVKIGEENEILVRGGMVMRGYYKKPEETAKAFTEDGFLRTGDVGEMDSCGNLFITDRLKELMKTLNGKYIAPQYIEGKIGKDKFIEQIAVIADAKKYVSALIVPCFDSLEEYAKQLNIKYQDRIELIKHSDIIQMFERRIHELQKELPSFEQVKKFTLLPQAFSTAMEEITPTLKLRRKVIMQRYREQIEEMYNERSLT", "notes": "full length, His-tagged in pET28b (NdeI/HindIII), no tag removal described; E. coli BL21 host; locus tag is that of strain SH0165"}, "B2": {"name": "FadD1 (Glaesserella parasuis SH0165) (protein)", "chain": "MEKIWFDNYPAEAERTLDVEPYESLVEMFEKAVQRHPDIPAYINMGQVLTFRKLEERSRAFAAYLQNELRLEKGERIALMIPNLLQYPIALFGALRAGLVVVNVNPLYTPRELEYQLNDSGAKAIVVVSNFAATLEKVVFNTQVKHVILTRMGDQLSFGKRTLVNFVVKYVKKLVPKYKLPHAVSFRETLSIGKQRQYVRPTLYKNDLAFLQYTGGTTGVAKGAMLSHSNVIANILQAKWVAYPLIQRSQERIGVIALPLYHVFALTVNCLLFIELGVTGLLITNPRDIPAFVKELKKYPVMAITGVNTLFNALLNNPQLKEVDFSNLKLSVGGGAAIQRAVADRWHKTTGCHIIEGYGMTECSPLIAATRNDSTEYSGSIGVPVPNTDIRIVDDAGNDLPIGERGELWVKGPQVMQGYWQRPEDTAEVLKDGWMATGDIVELGQDLNLRIVDRKKDMIIVSGFNVYPNEIEDVVALHPKVNEVVVVGIPSEVSGESIKVFVTKKDESLTREELRNHCRQHLTGYKIPREIEFRDELPKSNVGKILRRVLRDEEVARVKSQMEGKL", "notes": "as for B1"}}, "assay_in_all_cases": "DTNB free-thiol (CoA) assay, Hanes-Woolf", "key": {"FadD1": {"biological_target": "T1, FadD1 (Glaesserella parasuis, UniProt B8F3K7)", "T1 construct": "gene lcfA; full length, His-tagged in pET28b (NdeI/HindIII), no tag removal described; E. coli BL21 host; locus tag is that of strain SH0165", "T1 sequence (B8F3K7 1-566)": "B2 chain", "assay_type": "biochemical", "details": "5 mM ATP, 0.5 mM CoA, 10 mM MgCl2, 0.1% Triton X-100, pH 7.2, 37°C; read-out: Kinetic parameters^a / Km^c", "excerpt": "(§1) DTNB free-thiol (CoA) assay, Hanes-Woolf on FadD1"}, "[1]": {"substrate": "CCCCCCCCCCCCCCCC(=O)O", "assay_type": "biochemical, Glaesserella parasuis", "details": "5 mM ATP, 0.5 mM CoA, 10 mM MgCl2, 0.1% Triton X-100, pH 7.2, 37°C", "excerpt": "(§2) DTNB free-thiol (CoA) assay, Hanes-Woolf on FadD2"}, "[2]": {"substrate": "CCCCCCCCCCCCCC(=O)O", "assay_type": "biochemical, Glaesserella parasuis", "details": "5 mM ATP, 0.5 mM CoA, 10 mM MgCl2, 0.1% Triton X-100, pH 7.2, 37°C", "excerpt": "as §2"}, "[3]": {"substrate": "CCCCCCCCCCCCCCCC(=O)O", "assay_type": "biochemical, Glaesserella parasuis", "details": "5 mM ATP, 0.5 mM CoA, 10 mM MgCl2, 0.1% Triton X-100, pH 7.2, 37°C", "excerpt": "as §1", "remark": "listed apart in the source"}, "[4]": {"substrate": "CCCCCCCCCCCCCC(=O)O", "assay_type": "biochemical, Glaesserella parasuis", "details": "5 mM ATP, 0.5 mM CoA, 10 mM MgCl2, 0.1% Triton X-100, pH 7.2, 37°C", "excerpt": "as §1", "remark": "listed apart in the source"}}, "data": [{"molecule": "CCCCCCCC/C=C\\CCCCCCCC(=O)O", "note": "[C18:1]", "values": [{"measurement": "Km", "setting": "FadD1", "value": 15.6, "unit": "µM"}]}, {"molecule": "B1", "values": [{"measurement": "Km", "setting": "[1]", "value": 128.30, "unit": "µM"}, {"measurement": "kcat", "setting": "[1]", "value": 0.020, "unit": "s⁻¹"}, {"measurement": "kcat/Km", "setting": "[1]", "value": 160, "unit": "M⁻¹ s⁻¹"}, {"measurement": "Km", "setting": "[2]", "value": 173.40, "unit": "µM"}, {"measurement": "kcat", "setting": "[2]", "value": 0.002, "unit": "s⁻¹"}, {"measurement": "kcat/Km", "setting": "[2]", "value": 10, "unit": "M⁻¹ s⁻¹"}]}, {"molecule": "B2", "values": [{"measurement": "Km", "setting": "[3]", "value": 39.90, "unit": "µM"}, {"measurement": "kcat", "setting": "[3]", "value": 0.098, "unit": "s⁻¹"}, {"measurement": "kcat/Km", "setting": "[3]", "value": 2450, "unit": "M⁻¹ s⁻¹"}, {"measurement": "Km", "setting": "[4]", "value": 41.48, "unit": "µM"}, {"measurement": "kcat", "setting": "[4]", "value": 0.083, "unit": "s⁻¹"}, {"measurement": "kcat/Km", "setting": "[4]", "value": 2010, "unit": "M⁻¹ s⁻¹"}]}]}
